Data as given in doi:10.1101/336578.
Read-outs that look alike come from different tables or passages of the source.

How the values were obtained:
[1] = target: KS-PPT di-domain construct of the S. cerevisiae FAS α-chain (S. cerevisiae); test: SEC
[2] = target: KS-PPT di-domain construct of the S. cerevisiae FAS α-chain (S. cerevisiae); test: SEC; remark: listed apart in the source

stoichiometry N [1]: 2
stoichiometry N [2]: 2.5
Substance: KS-PPT di-domain construct of the S. cerevisiae FAS α-chain (domain or fragment)
